In paper PMC1849897:
Like-named read-outs stand apart in the source and are kept apart here.

Experiments:
Experiment in all cases: filter binding
[1] = biological target: T1, Py-DmBLM (Drosophila Bloom's syndrome helicase) (Drosophila, UniProt Q9VGI8 1-1487)
[2] = biological target: T1, Py-DmBLM (Drosophila Bloom's syndrome …); remark: listed apart in the source
[3] = biological target: T1, Py-DmBLM (Drosophila Bloom's syndrome …); remark: listed apart in the source

T1 sequence (Q9VGI8 whole entry): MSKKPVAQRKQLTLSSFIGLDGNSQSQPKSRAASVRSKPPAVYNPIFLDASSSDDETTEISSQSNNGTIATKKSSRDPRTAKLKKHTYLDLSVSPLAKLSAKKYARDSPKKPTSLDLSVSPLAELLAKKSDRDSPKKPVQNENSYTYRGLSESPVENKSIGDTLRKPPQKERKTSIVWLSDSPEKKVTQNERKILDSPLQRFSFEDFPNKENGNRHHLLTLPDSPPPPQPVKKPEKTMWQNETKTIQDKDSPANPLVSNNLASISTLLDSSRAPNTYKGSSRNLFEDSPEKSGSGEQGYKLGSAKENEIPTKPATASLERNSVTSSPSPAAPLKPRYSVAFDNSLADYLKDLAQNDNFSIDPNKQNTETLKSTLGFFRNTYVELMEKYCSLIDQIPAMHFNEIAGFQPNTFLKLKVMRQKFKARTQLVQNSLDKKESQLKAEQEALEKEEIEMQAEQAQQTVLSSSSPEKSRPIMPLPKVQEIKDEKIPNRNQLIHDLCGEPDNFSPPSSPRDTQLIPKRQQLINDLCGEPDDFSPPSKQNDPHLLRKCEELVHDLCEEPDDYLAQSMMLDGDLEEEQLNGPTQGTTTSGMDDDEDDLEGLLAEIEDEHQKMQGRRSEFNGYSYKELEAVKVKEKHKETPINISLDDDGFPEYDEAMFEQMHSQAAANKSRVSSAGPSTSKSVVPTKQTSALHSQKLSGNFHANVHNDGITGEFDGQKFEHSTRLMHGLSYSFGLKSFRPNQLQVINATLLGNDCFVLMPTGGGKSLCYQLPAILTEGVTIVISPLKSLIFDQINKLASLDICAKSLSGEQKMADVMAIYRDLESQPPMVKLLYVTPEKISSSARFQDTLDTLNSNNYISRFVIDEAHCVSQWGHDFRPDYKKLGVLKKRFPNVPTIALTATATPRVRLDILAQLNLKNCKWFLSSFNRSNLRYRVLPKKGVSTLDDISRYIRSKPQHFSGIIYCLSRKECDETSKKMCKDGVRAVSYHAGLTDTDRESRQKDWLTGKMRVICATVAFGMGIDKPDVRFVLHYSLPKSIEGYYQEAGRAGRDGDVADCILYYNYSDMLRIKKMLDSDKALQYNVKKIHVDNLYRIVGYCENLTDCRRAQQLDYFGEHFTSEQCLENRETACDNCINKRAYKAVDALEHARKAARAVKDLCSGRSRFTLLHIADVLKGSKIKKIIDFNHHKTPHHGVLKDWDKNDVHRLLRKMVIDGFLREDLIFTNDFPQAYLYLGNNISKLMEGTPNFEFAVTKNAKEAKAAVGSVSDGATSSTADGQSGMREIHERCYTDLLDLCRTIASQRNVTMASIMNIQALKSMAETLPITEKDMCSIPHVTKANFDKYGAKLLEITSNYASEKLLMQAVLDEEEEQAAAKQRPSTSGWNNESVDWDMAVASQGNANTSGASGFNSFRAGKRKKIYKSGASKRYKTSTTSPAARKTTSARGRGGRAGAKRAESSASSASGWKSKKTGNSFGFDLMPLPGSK

B1: 3' Tail (o1/o2) (mixed)
DNA 1: GACGCTGCCGAATTCTGGCTTGCTAGGACATCTTTGCCCACGTTGACCCG
DNA 2: ATGTCCTAGCAAGCCAGAATTCGGCAGCGTC
B1: binds [1].

GACGCTGCCGAATTCTGGCTTGCTAGGACATCTTTGCCCACGTTGACCCG (ssDNA) [o1]: binds [2].

B2: Forked (o1/o3) (mixed)
DNA 1: B1 DNA 1
DNA 2: CGAATAATCGTCATGTCCTAGCAAGCCAGAATTCGGCAGCGTC
B2: binds [3].
